Assay results from publication doi:10.1101/2024.04.02.587845.

Assays:
[1] = molecular target: GST-YFP-6His-PANT^R20A (Arabidopsis); assay: MST
[2] = molecular target: GST-YFP-6His-PANT^WT (PANT domain of Arabidopsis SRFR1) (Arabidopsis); assay: MST

Which results are given for “synthetic P1 peptide (P1 segment of IDR1 of SRFR1)”?
Kd [1]: 956 µM; Kd [2]: 395 µM
